The values that follow come from patent US20180244730A1 (OXFORD UNIVERSITY INNOVATION, published 2018).

The labels stand for the following.
B1: SnoopCatcher (designed binder)
chain: MGSSHHHHHHSSGLVPRGSHMKPLRGAVFSLQKQHPDYPDIYGAIDQNGTYQNVRTGEDGKLTFKNLSDGKYRLFENSEPAGYKPVQNKPIVAFQIVNGEVRDVTSIVPQDIPATYEFTNGKHYITNEPIPPK
notes: also called SnoopCatcher fused to a His-Tag
B2: RrgACatcher (designed binder)
chain: KLGDIEFIKVNKNDKKPLRGAVFSLQKQHPDYPDIYGAIDQNGTYQNVRTGEDGKLTFKNLSDGKYRLFENSEPAGYKPVQNKPIVAFQIVNGEVRDVTSIVPQ

Test [1] deals with B1. Nature of the test: electrospray ionization mass spectrometry.
The target in test [2] is SnoopTag-MBP. Nature of the test: mixing, SDS-PAGE with Coomassie staining (covalent isopeptide adduct).
In test [3] the target is SnoopTag-MBP. Nature of the test: mixing, SDS-PAGE with Coomassie staining.
The target in test [4] is B1. The test is described as follows: mixing, SDS-PAGE with Coomassie staining.
Test [5] concerns the target T1, SpyCatcher.
T1 construct: also called pDEST14-SpyCatcher (GenBank JQ478411, Addgene plasmid ID 35044)
Nature of the test: mixing, SDS-PAGE with Coomassie staining.

T1 sequence (chain, as listed by the source): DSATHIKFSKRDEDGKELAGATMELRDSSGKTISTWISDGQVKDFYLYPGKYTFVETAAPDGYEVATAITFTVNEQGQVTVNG

As to KLGDIEFIKVNK [synthetic SnoopTag peptide], the binding result in test [1] was “binds”.
Turning to B1, the binding result in test [2] is listed as “binds”.
For the molecule B2, the binding result in test [3], in test [4] and in test [5] was “no binding” in each case.
